Article PMC7864074, “Functions of Gle1 are governed by two distinct modes of self-association” (The Journal of Biological Chemistry, 2020)
Where a chain is given by its changes, count along the chain named.

B1: MBP-Gle1^1–152 (domain or fragment, human, UniProt Q53GS7 1-152, looked up)
chain: MPSEGRCWETLKALRSSDKGRLCYYRDWLLRREDVLEECMSLPKLSSYSGWVVEHVLPHMQENQPLSETSPSSTSASALDQPSFVPKSPDASSAFSPASPATPNGTKGKDESQHTESMVLQSSRGIKVEGCVRMYELVHRMKGTEGLRLWQE
notes: source: E. coli Rosetta, purified (amylose resin eluted with maltose, ion exchange); not shown: MBP, N-terminal, kept
B2: Gle1^(1–360 8D) (domain or fragment, human, UniProt Q53GS7 1-360, looked up)
chain: MPSEGRCWETLKALRSSDKGRLCYYRDWLLRREDVLEECMSLPKLSSYSGWVVEHVLPHMQENQPLSETSPSSTSASALDQPSFVPKSPDASSAFSPASPATPNGTKGKDESQHTESMVLQSSRGIKVEGCVRMYELVHRMKGTEGLRLWQEEQERKVQALSEMASEQLKRFDEWKELKQHKEFQDLREVMEKSSREALGHQEKLKAEHRHRAKILNLKLREAEQQRVKQAEQERLRKEEGQIRLRADYADQEEMLQDSQQDDASEQHKALLKVDLAAFQTRGNQLCSLISGIIRASSESSYPTAESQAEAERADREDRDLDMNDGQEITRACEDKRRQDEEEAQVKLQEAQMQQGPEAH
notes: source: E. coli Rosetta, purified
B3: Gle1^1–360 (domain or fragment, human, UniProt Q53GS7 1-360, looked up)
chain: B2 chain with D248L, D251L, D258L, D262L, D315L, D318M, D322L, D325L
notes: human Gle1, N-terminal region, residues 1-360; also called WT Gle1^1–360; Gle1 N-terminal region; source: E. coli Rosetta, purified (amylose resin, on-column cleavage, S200 SEC)
B4: Gle1^(1–360 Δ45–54) (domain or fragment, human, UniProt Q53GS7 1-360, looked up)
chain: MPSEGRCWETLKALRSSDKGRLCYYRDWLLRREDVLEECMSLPKHVLPHMQENQPLSETSPSSTSASALDQPSFVPKSPDASSAFSPASPATPNGTKGKDESQHTESMVLQSSRGIKVEGCVRMYELVHRMKGTEGLRLWQEEQERKVQALSEMASEQLKRFDEWKELKQHKEFQDLREVMEKSSREALGHQEKLKAEHRHRAKILNLKLREAEQQRVKQAEQERLRKEEGQIRLRALYALQEEMLQLSQQLDASEQHKALLKVDLAAFQTRGNQLCSLISGIIRASSESSYPTAESQAEAERALREMRDLLMNLGQEITRACEDKRRQDEEEAQVKLQEAQMQQGPEAH
notes: also called Gle1^(1–360 45–54); source: E. coli Rosetta, purified (amylose resin, on-column cleavage, S200 SEC)
B5: Gle1^152–360 (domain or fragment, human, UniProt Q53GS7 152-360, looked up)
chain: EEQERKVQALSEMASEQLKRFDEWKELKQHKEFQDLREVMEKSSREALGHQEKLKAEHRHRAKILNLKLREAEQQRVKQAEQERLRKEEGQIRLRALYALQEEMLQLSQQLDASEQHKALLKVDLAAFQTRGNQLCSLISGIIRASSESSYPTAESQAEAERALREMRDLLMNLGQEITRACEDKRRQDEEEAQVKLQEAQMQQGPEAH
notes: also called coiled-coil domain; source: E. coli Rosetta, purified (amylose resin, on-column cleavage, 30% ammonium sulfate precipitation, S200 SEC)

Columns and labels:
[1] = target: SspB-Gle1^152–360 fusion protein (E. coli | human) (UniProt Q53GS7); assay: SEC-MALS; ACCORD (forced dimerization by SspB); Superose 6 10/300 GL; 20 mM HEPES (pH 7.6), 200 mM NaCl, 5% glycerol, 0.5 mM TCEP, 0.05% azide
[2] = target: the molecule itself; assay: SEC; S200 size-exclusion chromatography; 20 mM HEPES, pH 7.5, 200 mM NaCl, 0.5 mM TCEP, 10% glycerol; MBP as a size reference
[3] = target: the molecule itself; assay: native gel or EMSA; 4–15% acrylamide gradient native PAGE, 150 V for 90 min, Coomassie staining

Molecule	binding result [2]	further results
SspB-Gle1^152–360 fusion protein (from UniProt Q53GS7 152-360)		stoichiometry N [1]: 2
B1	binds	
B2	binds	
B3	binds	
B4	binds	
B5		binding result [3]: binds
